According to patent US20260120837A1, “METHODS OF DOSING THERAPEUTIC AGENTS” (Fusion Pharmaceuticals Inc., priority 2022, published 2026):
Read-outs that look alike come from different tables or passages of the source. Blank lines part the entries; values can stand above or below the molecule they belong to.

Columns and labels:
[1] = rats; cited from earlier work
[2] = PK parameters for rats and Ctrans, two-compartment model with nonlinear only clearance pathway (phenytoin); assay type: in vivo; settings: rats
Procedure: Its PK in rats is described by a two-compartment model with nonlinear only clearance described by M-M equation. For this kind of PK model, […] is determined according to Equation (3): PK parameters listed in Table 2, […] and KM, were obtained based on the protocols disclosed in Della Paschoa et al., 1998, with modification to be consistent with the current model description provided herein.

[3] = PK parameters and Ctrans, two-compartment model with nonlinear M-M clearance only (cetuximab, alemtuzumab); assay type: in vivo, human; settings: calculated by Equation (3)
Procedure: For this kind of PK model, Ctrans is determined according to Equation (3): […]
PK parameters listed in Table 1, i.e., Vc, Vp, Q, VM and KM, were obtained based on the protocols disclosed in Dirks et al., 2008 and Mould et al., 2007, with modification to be consistent with the current model description provided herein.

[4] = cited from earlier work
[5] = cited from earlier work; for Kdeg: degradation of free target; for Cl / Q / Vc / Vp: in vivo; for Kint: internalization of drug-target complex; for Ksyn: target synthesis
[6] = PK (TMDD) model parameters and Ctrans, two-compartment TMDD model, QSS approximation; assay type: in vivo, humans; settings: for Ctrans: Equation (13); for Ttot = Ksyn/Kdeg: total target concentration
Procedure: For this kind of PK model, Ctrans is determined according to Equation (2), specified by Equation (13).
where VM and KM are calculated from TMDD model parameters according to Equations (11) and (12).
PK parameters listed in Table S were obtained based on the protocols disclosed in Stein & Peletier, 2018 and Rodriguez-Vera et al., 2015, with modification to be consistent with the current model description listed in Equations (7A)-(7D).

[7] = cited from earlier work; for KM / Q / VM / Vc / Vp: in vivo; for Cl: linear clearance
[8] = PK parameters and Ctrans, two-compartment model with mixed linear and nonlinear M-M clearance pathways (four antibodies); assay type: in vivo, human; settings: calculated by Equation (2), sqrt(KM×VM/Cl)
Procedure: For this kind of PK model, Ctrans is determined according to Equation (2): […]
PK parameters listed in Table 3, i.e., Vc, Cl, Vp, Q, VM and KM, were obtained based on the protocols disclosed in Frey et al., 2010; Kloft et al., 2004; Ma et al., 2009; and Okamoto et al., 2021, with modification to be consistent with the current model description provided here.

[9] = Minimal dose to keep plasma concentration Cp(t) above Ctrans for Tdur, two-compartment model solved with deSolve (tocilizumab); set-up: species or system humans
Procedure: This example requires that Ttrans for the desired therapeutic dose be greater than the pre-determined duration time point post-administration, which is denoted herein as Tdur.
PK model parameters for tocilizumab such as Vc, Cl, Vp, Q, KM and VM are provided in Example 3. Ctrans is determined to be 8.22 μg/mL or 8.22 mg/L; Tur is pre-determined as 28 days, which is equal to or less than Ttrans.

[10] = PK model parameters, Ctrans and therapeutic dose to reach Ctrans at Ttrans, one-compartment model with mixed linear and nonlinear clearance (evolocumab); assay type: in vivo, humans
Procedure: Ttrans to reach the transitional concentration Ctrans for any dose level Cmax is determined according to Equation(S). When Ttrans and Ctrans are known, Cmax and the therapeutic dose can be determined as follows.
According to Equation (2), Ctrans is determined to be 115.18 nM or 17.28 mg/L assuming the molecular weight of 150 kDa or 150 kg/mol for a typical antibody. Ttrans is pre-determined to be 28 days. Ttrans and Ctrans can be used to determine Cmax based on Equation(S). Cmax can be obtained from Equation (5) via any root solver as provided in MATLAB™ and RStudio.
PK parameters listed in Table 6 were obtained based on the protocols disclosed in Kuchimanchi et al., 2018, with modification to be consistent with the current model description listed in Equations (2) and (4).

[11] = in vivo; cited from earlier work

Q = K12 × Vc [2]: 79.98 mL/min | Vp = Q/K21 [2]: 1333 mL | Ctrans ([2]; calculated by Equation (3)): 5.9 µg/mL
Molecule: O=C1NC(=O)C(c2ccccc2)(c2ccccc2)N1 [Phenytoin]
K12 [1]: 0.197 min⁻¹ | K21 [1]: 0.060 min⁻¹ | KM [1]: 5.9 µg/mL | VM [1]: 272 µg/min | Vc [1]: 406 mL

Molecule: Alemtuzumab: antibody; PK described by two-compartment model with nonlinear only clearance
Ctrans [3]: 338 (μg/L) | KM ([4]; M-M equation coefficient): 338 (μg/L) | VM ([4]; M-M equation coefficient): 1020 (μg/hour) | Vc ([4]; central compartment distribution volume): 11.3 (L) | Q ([4]; exchange rate between compartments): 1.05 (L/hour) | Vp ([4]; peripheral compartment distribution volume): 41.5 (L)

Molecule: Mavrilimumab: antibody; TMDD model under the QSS condition
Kdeg [5]: 2.2 (/day) | Koff ([5]; drug-target binding reverse rate constant): 10 (/day) | Cl [5]: 0.3 (L/day) ^ | Q [5]: 1.7 (L/day) ^ | Vc [5]: 2.8 L | Vp [5]: 5.6 L | Kint [5]: 2.2 (/day) | Ksyn [5]: 2.4 (nM/day)^ | Ctrans [6]: 4.96 (nM) ^ | VM = KsynVc ([6]; in vivo): 6.72 (nmol/Day) | Km ([6]; in vivo, read-out: KM = KQSS): 0.0011 µM | KQSS = (Kint + Koff)/Kon ([6]; quasi-steady-state constant): 1.1 (nM) ^ | Ttot = Ksyn/Kdeg [6]: 1.09 (nM) ^

Molecule: Nimotuzumab: antibody of Table 5; TMDD model under QSS condition (text b119 says efalizumab)
Kdeg [5]: 5.5 (/hour) | Cl [5]: 0.000703 (L/hour) ^ | Q [5]: 0.00322 (L/hour) | Vc [5]: 1.43 L | Vp [5]: 18.5 L | Kint [5]: 0.148 (/hour) | KQSS = (Kint + Koff)/Kon ([5]; quasi-steady-state constant): 6.96 (mg/L) | Ksyn [5]: 1.43 (μg/mL/hour) | Ctrans [6]: 142.3 (μg/mL) | KM = KQSS ([6]; in vivo): 6.96 (mg/L) | VM = KsynVc ([6]; in vivo): 2.045 (mg/hour) | Ttot = Ksyn/Kdeg [6]: 0.26 (μg/mL)

Molecule: Panitumumab: antibody; two-compartment model with mixed linear and nonlinear clearance
KM [7]: 0.401 µg/mL | Q [7]: 0.389 L/day | VM [7]: 10.6 mg/day | Vc [7]: 3.66 L | Vp [7]: 2.58 L | Cl [7]: 0.269 L/day | Ctrans [8]: 3.98 µg/mL

Molecule: Sibrotuzumab: antibody; two-compartment model with mixed linear and nonlinear clearance
KM [7]: 0.219 µg/mL | Q [7]: 0.902 L/day | VM [7]: 0.811 mg/day | Vc [7]: 4.13 L | Vp [7]: 3.19 L | Cl [7]: 0.530 L/day | Ctrans [8]: 0.579 µg/mL

Molecule: Tocilizumab: antibody; two-compartment model with mixed linear and nonlinear clearance
KM [7]: 2.7 µg/mL | Q [7]: 0.2 L/day | VM [7]: 7.5 mg/day | Vc [7]: 3.5 L | Vp [7]: 2.9 L | Cl [7]: 0.3 L/day | Ctrans [8]: 8.22 µg/mL | Ctrans [9]: 8.22 mg/L

Molecule: Vedolizumab: antibody; two-compartment model with mixed linear and nonlinear clearance
KM [7]: 0.851 µg/mL | Q [7]: 0.161 L/day | VM [7]: 0.238 mg/day | Vc [7]: 3.16 L | Vp [7]: 1.84 L | Cl [7]: 1.10 L/day | Ctrans [8]: 0.429 µg/mL

B1: Evolocumab: antibody; one-compartment model with mixed linear and nonlinear clearance pathways (antibody, chains of the INN, looked up, V domains shown)
VH: EVQLVQSGAEVKKPGASVKVSCKASGYTLTSYGISWVRQAPGQGLEWMGWVSFYNGNTNYAQKLQGRGTMTTDPSTSTAYMELRSLRSDDTAVYYCARGYGMDVWGQGTTVTVSS
VL: ESALTQPASVSGSPGQSITISCTGTSSDVGGYNSVSWYQQHPGKAPKLMIYEVSNRPSGVSNRFSGSKSGNTASLTISGLQAEDEADYYCNSYTSTSMVFGGGTKLTVL
Ctrans ([10]; Equation (2)): 115.18 nM | Ctrans ([10]; assuming molecular weight of 150 kDa): 17.28 mg/L | Cl [11]: 0.105 L/day | Km [11]: 0.0273 µM | VM [11]: 51.02 nmol/day | Vc [11]: 5.18 L
